Test results: PMC3100292 (PLoS ONE, 2011)

Experiments:
[1] = target: PDlim2 fused with the GAL4 DNA-binding domain (pBind-PDlim2) (human) (UniProt Q96JY6); assay: two-hybrid
YC-PDlim2 (human) = YC-PDlim2 (human) (UniProt Q96JY6); assay: split reporter (BiFC, NanoBiT)
[2] = target: T1, PDlim2 PDZ domain (residues 1-83) (human, UniProt Q96JY6 1-83); assay: crystal structure; conditions: both partners purified
T1 construct: also called PDZ region (1-83) of PDlim2
T1 sequence (looked up): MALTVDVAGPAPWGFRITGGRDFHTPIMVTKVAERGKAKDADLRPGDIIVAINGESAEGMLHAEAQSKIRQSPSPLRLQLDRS

“HN12-NS1 fused with the VP16 transcription activation domain (pACT-NS1) (natural protein)” was tested. Which relative luciferase activity (firefly/Renilla) [1] did it give?
The relative luciferase activity (firefly/Renilla) was 160 RLU.

YN-HN12-NS1 wt (natural protein) was tested. Which mean fluorescence intensity (MFI) (YC-PDlim2 (human)) did it give?
Its mean fluorescence intensity (MFI) is 1120.

What about the percent of cells in the high fluorescence zone (YC-PDlim2 (human)) of the same molecule?
The percent of cells in the high fluorescence zone was 10.9%.

Does TIESEV [C-terminal hexapeptide of HN12-NS1 (TIESEV)] bind [2]?
Result: binds
